Laboratory results published in patent publication US20260242478A1 (published 2026).
Where no end group is shown, it is not given here.

B1: Phage-2449 (peptide)
peptide: EEPWCIPSWMCALT
modifications: cysteine pairing not given here; also: displayed as fusion to phage pIII
B2: Phage-2441 (peptide)
peptide: VVHWCTPAWMCYDM
B3: Phage-2427 (peptide)
peptide: EYKWCVPIWMCAYD
modifications: cysteine pairing not given here; also: displayed as fusion to phage pIII
notes: Peptide-180 library clone, tested as clonal phage (peptide fused to pIII)
B4: Phage-2422 (peptide)
peptide: WTNTCIPMWMCEGF
notes: as for B3
B5: Phage-2421 (peptide)
peptide: EFKWCIPKWMCMVD
notes: as for B3
B6: Phage-2357 (peptide)
peptide: AERWCIPSWMCELA
notes: Peptide-180 library clone, tested as clonal phage supernatant (peptide fused to the pIII filament of the bacteriophage)
B7: Phage-2428 (peptide)
peptide: ADRLCIPPWMCEMK
notes: as for B3
B8: Phage-2351 (peptide)
peptide: PMKWCIPEWMCIAS
notes: as for B6
B9: Phage-2426 (peptide)
peptide: LWMSCIPPWMCANV
modifications: cysteine pairing not given here; also: displayed as fusion to phage pIII
notes: as for B3
B10: Phage-2436 (peptide)
peptide: MPKWCTPSWMCSPS
B11: Phage-2423 (peptide)
peptide: LTNWCTPQWMCLGF
notes: as for B3
B12: Phage-2437 (peptide)
peptide: EMNWCIPAWMCEGR
B13: Phage-2446 (peptide)
peptide: YEKWCTPTWMCSWL
B14: Phage-2433 (peptide)
peptide: GDNWCKPAWMCRDM
notes: as for B3
B15: Phage-2432 (peptide)
peptide: EVKWCIPNWMCAAS
modifications: cysteine pairing not given here; also: displayed as fusion to phage pIII
notes: as for B3
B16: Phage-2354 (peptide)
peptide: NDHWCIPPWMCAPY
modifications: cysteine pairing not given here; also: displayed on bacteriophage by fusion to pIII
notes: as for B6
B17: Phage-2352 (peptide)
peptide: IDHWCTPAWMCRGF
notes: as for B6
B18: Phage-2448 (peptide)
peptide: ESKWCIPEWMCEQR
B19: Phage-2429 (peptide)
peptide: GEKWCIPEWMCVTT
notes: as for B3
B20: Phage-2450 (peptide)
peptide: VVKWCTPPWMCSVW
B21: Phage-2424 (peptide)
peptide: LVNWCTPPWMCWHD
notes: as for B3
B22: Phage-2353 (peptide)
peptide: SEEWCIPPWMCLGR
notes: as for B6
B23: Phage-2440 (peptide)
peptide: PAKWCVPSWMCSEI
B24: Phage-2445 (peptide)
peptide: LERWCIPSWMCTED
B25: Phage-2355 (peptide)
peptide: FENWCTPSWMCSGF
notes: as for B6
B26: Phage-2438 (peptide)
peptide: EAKWCIPNWMCEMA
B27: Phage-2349 (peptide)
peptide: LSNWCVPLWMCEMV
notes: as for B6
B28: Phage-2444 (peptide)
peptide: EVKWCIPAWMCVED
B29: Phage-2358 (peptide)
peptide: PVKWCVPPWMCAAT
modifications: cysteine pairing not given here; also: displayed on bacteriophage by fusion to pIII
notes: as for B6
B30: Phage-2356 (peptide)
peptide: VPKWCTPTWMCIHM
notes: as for B6
B31: Phage-2447 (peptide)
peptide: IEKWCTPPWMCLDH
B32: Phage-2434 (peptide)
peptide: EERWCIPEWMCSRI
notes: as for B3
B33: Phage-2431 (peptide)
peptide: VLKWCTPPWMCWDI
notes: as for B3
B34: Phage-2425 (peptide)
peptide: DENWCKPLWMCEGF
notes: as for B3
B35: Phage-2350 (peptide)
peptide: MDRWCIPEWMCARH
modifications: cysteine pairing not given here; also: displayed on bacteriophage by fusion to pIII
notes: as for B6
B36: Phage-2482 (peptide)
peptide: VVNWCTPAWMCSGF
modifications: cysteine pairing not given here; also: displayed on phage as fusion to pIII, pIII and linker sequence not given here
notes: Clonal phage of the peptide-180 library; not shown: pIII filament protein of the bacteriophage to which the peptide is fused
B37: Phage-2439 (peptide)
peptide: MPKWCTPSWMCAVQ
modifications: cysteine pairing not given here; also: displayed as fusion to phage pIII
B38: Phage-2442 (peptide)
peptide: LHKLCTPTWMCEGF
B39: Phage-2430 (peptide)
peptide: EIKWCTPPWMCTIG
notes: as for B3
B40: Phage-2435 (peptide)
peptide: GINWCTPSWMCTGF
notes: as for B3
B41: Phage-2443 (peptide)
peptide: GAIWCIPQWMCAWN
modifications: cysteine pairing not given here; also: displayed as fusion to phage pIII

Experiments:
[1] = target: T1, PSMA Fab (biotinylated (site not stated)); assay: clonal phage ELISA; biotinylated PSMA Fab on neutravidin plate pre-incubated with PSMA antigen as competitor; anti-M13 HRP detection;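 further: crude clonal phage supernatants briefly incubated on wells preloaded with PSMA antigen in blocking buffer, or buffer only as control, bound phage detected with HRP-conjugated anti-M13 antibody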
T1 construct: Biotinylated PSMA Fab captured on neutravidin plates in the phage ELISA; also called Anti-PSMA Fab; 006 PSMA Fab

[2] = target: T1, PSMA Fab; assay: clonal phage ELISA; biotinylated PSMA Fab on neutravidin plate; anti-M13 HRP detection; blocking buffer alone
Description: (§1) Clonal phage were harvested as crude supernatants and screened via standard ELISAs. […] Prior to the addition of clonal phage. wells were incubated with blocking buffer and PSMA antigen or blocking buffer alone. Without washing or aspirating, clonal phage supernatants were then added to the wells and incubated for a short time. Wells were then washed followed by detection of bound phage using a horse radish conjugated anti-M13 antibody.

[3] = target: T2, PSMA Fab; assay: phage ELISA; biotinylated PSMA Fab on neutravidin plate, clonal phage supernatant, anti-M13 HRP; no PSMA antigen
T2 construct: Biotinylated and captured on neutravidin coated plates in the phage ELISA; also called 006 PSMA Fab; Anti-PSMA Fab
Description: as §1

[4] = target: T2, PSMA Fab; assay: phage ELISA; biotinylated PSMA Fab on neutravidin plate, clonal phage supernatant, anti-M13 HRP; wells pre-incubated with PSMA antigen as competitor
Description: as §1

[5] = target: T3, PSMA Fab; assay: clonal phage ELISA on biotinylated PSMA Fab captured on neutravidin, anti-M13 HRP detection;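 further: crude clonal phage supernatants added to wells pretreated with PSMA antigen in blocking buffer or with blocking buffer only, then briefly incubated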
T3 construct: also called Anti-PSMA Fab; 006 PSMA Fab
Description: as §1

[6] = target: T3, PSMA Fab; assay: clonal phage ELISA on captured PSMA Fab pre-incubated with PSMA antigen (competitor: PSMA)
Description: as §1

[7] = target: T4, 006 PSMA Fab; assay: phage ELISA: biotinylated PSMA Fab on neutravidin plate, clonal phage supernatant, anti-M13-HRP detection; blocking buffer alone
T4 construct: also called Anti-PSMA Fab; anti-PSMA Fab
Description: as §1

[8] = target: T4, 006 PSMA Fab; assay: phage ELISA: biotinylated PSMA Fab on neutravidin plate pre-incubated with PSMA antigen (competitor), clonal phage supernatant, anti-M13-HRP detection
Description: as §1

Binder	Phage binding ELISA signal, Anti-PSMA Fab in presence of PSMA [1]	Phage binding ELISA signal, Anti-PSMA Fab [2]	phage binding ELISA signal [3]	phage binding ELISA signal [4]	other results
B1	0.0689	1.29	–	–	–
B2	0.0623	1.3	–	–	–
B3	–	–	1.33	0.0826	–
B4	–	–	1.33	0.0808	–
B5	–	–	1.33	0.0948	–
B6	–	–	–	–	Phage binding ELISA signal, Anti-PSMA Fab [5]: 1.42; Phage binding ELISA signal, Anti-PSMA Fab with PSMA antigen [6]: 0.0756
B7	–	–	1.33	0.0685	–
B8	–	–	–	–	Phage binding ELISA signal, Anti-PSMA Fab [5]: 1.43; Phage binding ELISA signal, Anti-PSMA Fab with PSMA antigen [6]: 0.102
B9	–	–	1.33	0.137	–
B10	0.0576	1.31	–	–	–
B11	–	–	1.33	0.0731	–
B12	0.0633	1.31	–	–	–
B13	0.218	1.29	–	–	–
B14	–	–	1.32	0.0728	–
B15	–	–	1.32	0.077	–
B16	–	–	–	–	Phage binding ELISA signal, Anti-PSMA Fab [5]: 1.42; Phage binding ELISA signal, Anti-PSMA Fab with PSMA antigen [6]: 0.0707
B17	–	–	–	–	Phage binding ELISA signal, Anti-PSMA Fab [5]: 1.43; Phage binding ELISA signal, Anti-PSMA Fab with PSMA antigen [6]: 0.0775
B18	0.0688	1.29	–	–	–
B19	–	–	1.32	0.0637	–
B20	0.104	1.29	–	–	–
B21	–	–	1.33	0.0827	–

Binder	Phage binding ELISA signal, Anti-PSMA Fab in presence of PSMA [1]	Phage binding ELISA signal, Anti-PSMA Fab [2]	phage binding ELISA signal [3]	phage binding ELISA signal [4]	other results
B22	–	–	–	–	Phage binding ELISA signal, Anti-PSMA Fab [5]: 1.43; Phage binding ELISA signal, Anti-PSMA Fab with PSMA antigen [6]: 0.0756
B23	0.0676	1.31	–	–	–
B24	0.0674	1.3	–	–	–
B25	–	–	–	–	Phage binding ELISA signal, Anti-PSMA Fab [5]: 1.42; Phage binding ELISA signal, Anti-PSMA Fab with PSMA antigen [6]: 0.0807
B26	0.0622	1.31	–	–	–
B27	–	–	–	–	Phage binding ELISA signal, Anti-PSMA Fab [5]: 1.43; Phage binding ELISA signal, Anti-PSMA Fab with PSMA antigen [6]: 0.0796
B28	0.0892	1.3	–	–	–
B29	–	–	–	–	Phage binding ELISA signal, Anti-PSMA Fab [5]: 1.42; Phage binding ELISA signal, Anti-PSMA Fab with PSMA antigen [6]: 0.0663
B30	–	–	–	–	Phage binding ELISA signal, Anti-PSMA Fab [5]: 1.42; Phage binding ELISA signal, Anti-PSMA Fab with PSMA antigen [6]: 0.0649
B31	0.0663	1.29	–	–	–
B32	–	–	1.32	0.0557	–
B33	–	–	1.32	0.123	–
B34	–	–	1.33	0.0991	–
B35	–	–	–	–	Phage binding ELISA signal, Anti-PSMA Fab [5]: 1.43; Phage binding ELISA signal, Anti-PSMA Fab with PSMA antigen [6]: 0.0537
B36	–	–	–	–	phage binding ELISA signal [7]: 1.23; phage binding ELISA signal in presence of PSMA antigen [8]: 0.0652
B37	0.0845	1.31	–	–	–
B38	0.0712	1.3	–	–	–
B39	–	–	1.32	0.102	–
B40	–	–	1.31	0.0711	–
B41	0.132	1.3	–	–	–
